How the values were obtained:
C57BL/6 mice [1] = test: Intra-myocardial injection of FGF23 in mice; format: in vivo, mouse; conditions: 7.5 ng FGF23 intra-myocardial
Procedure: Twelve-week old adult C57BL/6 mice (Jackson Laboratories) underwent cardiac surgery using a standard operative procedure that has been described previously for intra-myocardial implantation of stem cells (Amado et al., Proc. Natl. Acad. Sci. U.S.A., 102(32):11474-11479, 2005). All procedures were performed by a single investigator who was blinded to the specific treatment group. All protocols and experimental procedures were approved by the Institutional Animal Care and Use Committee at the University of Miami Miller School of Medicine. Briefly, mice were anesthetized with isoflurane and an incision was made between the 3rd and 4th rib to reveal a cardiac window. Three injections of purified recombinant murine FGF23 in PBS or PBS alone were delivered into the free wall of the left ventricle via a 30-gauge needle attached to a standing Hamilton syringe. At each of the three sites, 10 μl were injected for a total of 30 μl containing a total of 7.5 ng FGF23. Cardiac function was evaluated by Vevo 770 imaging system (Visual Sonics, Toronto, Canada) at baseline and 2 weeks after surgery. Long and short axis 2D parasternal views and short axis M mode views were recorded under general anesthesia with isoflurane inhalation delivered through a nose mask. The heart rate was maintained above 400 bpm with controlled body temperature set to 37° C. At 7- and 14-days post-injection, animals were sacrificed, hearts were isolated, perfused ex-vivo (6 ml of 10% Formalin with 4 ml of 20 mM KCl), stored overnight in 10% formalin for fixation, and then serially sectioned (7 μm slices) and stained with hematoxylin and eosin. Age-matched untreated animals were sacrificed at 14 weeks of life. […]
(§1) Short-axis cardiac sections were used to quantify myocardial thickness by measuring the distance from the inner to the outer myocardial zone at the mid-chamber zone. […] Since klothro-ablated kl/kl mice display severe growth retardation with small hearts (Kuro-o et al., Nature, 390(6655):45-51, 1997), we also measured relative wall thickness calculated as two times the anterior wall thickness divided by left ventricular internal diameter. Total RNA was isolated from flash frozen hearts using TRIzol (Invitrogen) and RT-PCR analyses were performed as described above.
(§2) We measured cross-sectional surface area of cardiac myocytes in paraffin-embedded short-axis sections of the heart. Briefly, 7 μm thick sections were deparaffinized according to our established protocols. To specifically label cardiac myocytes, we used mouse monoclonal MF20 antibody against sarcomeric myosin at 1:200 and Cy5-conjugated donkey-anti mouse (Invitrogen) as secondary antibody at 1:400. To visualize nuclei, fixed tissue was incubated with 4′,6-diamidino-2-phenylindole (DAPI; 400 ng/ml in PBS) for 5 minutes. To visualize cellular borders, fixed tissue was incubated with wheat germ agglutinin (WGA) conjugated to Alexa Fluor 555 (Invitrogen) at 1 mg/ml in PBS containing 10 mM sodium azide. Immunofluorescence images were taken on a Leica TCS-SP5 confocal microscope with a 63× oil objective. Leica AF6000 fluorescence software was used to quantify cross-sectional cell surface area of 25 cells per field at four fields along the mid-chamber free wall based on WGA-positive staining.
Blood was collected at sacrifice via cardiac puncture and was centrifuged at 4° C. and 14,000 rpm for 15 minutes. Plasma supernatants were collected, stored at −80° C., and subsequently analyzed in batches for FGF23 (C-terminal mouse assay, Immutopics), PTH (1-84 assay, Alpco Immunoassays), and phosphate, calcium, BUN and creatinine (Ortho Vitros 250 Chemistry Analyzer).

[2] = Pharmacokinetic study of FGF23 in rats; format: in vivo, rat
Procedure: High systemic levels of FGF23 results in left ventricular hypertrophy in mice. […] Therefore, we administered FGF23 intravenously to determine if systemically elevated FGF23 levels could also induce LVH. We injected 40 μg/kg of recombinant FGF23 dissolved in 200 μl of PBS into the tail vein of adult wild type mice twice daily for 5 days with eight hours between daily doses. The dose of FGF23 was chosen based on published reports in which a similar dose stimulated ERK phosphorylation and increased Egr-1 expression (Urakawa et al., Nature, 444(7120):770-774, […]). The frequency of injections was chosen based on a pharmacokinetic study of adult wild type rats in which we injected a single dose of 40 μg/kg of FGF23. […] Thus, we estimated that two daily injections of 40 μg/kg would provide elevated FGF23 levels for at least 8 hours per day in mice. Control animals underwent the same injection schedule using 200 μl of PBS alone. On the morning of day 6, blood was collected for assay of FGF23, mice were sacrificed and the hearts examined.

C57BL/6 mice [3] = test: Intravenous injection of FGFs (with or without Fc-FGFR decoy receptors) in mice; format: in vivo, mouse; conditions: FGF23 40 μg/kg i.v. twice daily 5 days
Procedure: Twelve-week old adult C57BL/6 mice underwent tail vein injections using standard protocols as previously described for the systemic delivery of plasmid DNA (Faul et al., 2008). Briefly, mice were placed in a restrainer and 40 μg/kg of FGF23 dissolved in 200 μl of PBS were injected into the tail vein of 5 mice twice daily with eight hours in between injections for 5 consecutive days. Four mice underwent the same injection schedule using 200 μl of PBS alone as negative control. On the morning of the 6th day, 16 hours after the final tail vein injections, animals were sacrificed and the hearts were isolated and prepared using the same protocol as described above.
as §1, §2
Next, we wanted to determine the effectiveness of this FGFR trapping system on FGF-induced LVH in mice. To our knowledge, Fc decoy receptors have not yet been used to study FGFR function in vivo in any biological context, but served as valuable tools to analyze the functions of other receptor tyrosine kinases, like receptors for vascular endothelial growth factor (VEGFR) and their role in tumor growth and metastasis. We used similar Fc-FGFR concentrations as described for Fc-VEGFR in animal models of cancer (Lin J et al., Cancer Res. 2005; 65(15):6901-9).

B1: FGF23: recombinant mouse FGF23, 6His-tagged Tyr25-Val251 (Arg179Gln) (R&D Systems) (protein)
chain: YPDTSPLLGSNWGSLTHLYTATARTSYHLQIHRDGHVDGTPHQTIYSALMITSEDAGSVVITGAMTRRFLCMDLHGNIFGSLHFSPENCKFRQWTLENGYDVYLSQKHHYLVSLGRAKRIFQPGTNPPPFSQFLARRNEVPLLHFYTVRPRRHTQSAEDPPERDPLNVLKPRPRATPVPVSCSRELPSAEEGGPAASDPLGVLRRGRGDARGGAGGADRCRPFPRFV
modifications: left off: small tags and cut ends
C57BL/6 mice [1]
  cross-sectional surface area of cardiac myocytes (WGA): significant increase
  expression of β-MHC, ANP and BNP: increase
  α-MHC and MCAD mRNA levels: decrease
C57BL/6 mice [1]; day 7, vs vehicle
  thickness of the left ventricular free wall: significant increase
C57BL/6 mice [1]; day 14
  left ventricular internal diameter in diastole: significantly decreased
  relative wall thickness: increased
  thickness of the left ventricular free wall: increased further
C57BL/6 mice [1]; day 14, vs vehicle
  ratio of heart weight to tibial length: significantly increased
  thickness of the interventricular septum: increased significantly
C57BL/6 mice [1]; days 7 and 14
  levels of FGF23, phosphate, calcium, PTH, BUN, or creatinine vs vehicle: no significant differences
C57BL/6 mice [1]; echocardiography over time
  ejection fraction: no change
[2]; adult wild type rats, single dose of 40 μg/kg
  half-life of circulating FGF23: 30 min
[2]; rats, single dose 40 μg/kg, four hours post injection
  plasma levels: remained elevated above baseline
C57BL/6 mice [3]; vs vehicle
  cardiac weight/tibial length: significantly increased
  cross-sectional surface area of individual cardiac myocytes: increased
  expression of α-MHC and MCAD mRNA levels: decreased expression
  expression of β-MHC, ANP and BNP: increased expression
  left ventricular wall thickness: increased
C57BL/6 mice [3]; 16 hours after final injection, vs PBS
  FGF23 levels at the time of sacrifice: significantly increased

— US20160039936A1, “FIBROBLAST GROWTH FACTOR RECEPTOR INHIBITION FOR THE TREATMENT OF DISEASE” (UNIVERSITY OF MIAMI, priority 2011, published 2016)
